Test results: US20240360203A1

Biological target: SARS-CoV-2 BA.4/5+K444T Spike on pseudovirus (SARS-CoV-2), P0DTC2
Test: cell-based or functional assay

B1: AB-1 (antibody, V domains shown)
VH: EVQLVESGAEVKKPGESLKISCKGSGYTFTRYWIGWVRQMPGKGLEWMGIIYPGDSDVRYSPSFQGHVTISADKSISTAYLQWNSLKASDTAMYYCARLPQYCSKGVCYRWFDPWGQGTLVTVSS
VL: EIVLTQSPSSVSASVGDRVTITCRASQGISSWLAWYQQKPGKAPKLLIYAASSLQSGVPSRFSGSGSGTDFTLTISSLQPEDFATYYCQQGHSFPYTFGQGTNLEIK
B1 gave an IC50, pseudovirus neutralization of 9.4 ng/mL.
